Experimental data as given in patent WO2007124463A1 (dated 2007).

T1: mouse GLP-1 receptor (mouse, UniProt O35659 22-463)
T1 sequence (looked up): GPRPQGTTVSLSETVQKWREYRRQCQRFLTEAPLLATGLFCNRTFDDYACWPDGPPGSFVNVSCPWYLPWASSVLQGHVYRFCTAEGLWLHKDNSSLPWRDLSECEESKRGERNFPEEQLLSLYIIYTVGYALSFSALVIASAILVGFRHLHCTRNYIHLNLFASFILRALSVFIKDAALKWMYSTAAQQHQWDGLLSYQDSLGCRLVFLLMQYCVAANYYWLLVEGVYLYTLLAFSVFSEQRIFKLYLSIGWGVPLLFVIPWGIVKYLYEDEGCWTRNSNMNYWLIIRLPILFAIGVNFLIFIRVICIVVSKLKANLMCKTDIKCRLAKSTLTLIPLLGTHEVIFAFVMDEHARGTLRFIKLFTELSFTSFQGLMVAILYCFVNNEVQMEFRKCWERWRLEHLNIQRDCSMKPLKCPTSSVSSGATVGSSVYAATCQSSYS

B1: AG159 fully human anti-glucagon monoclonal antibody (antibody, V domains shown, not shown: a dimerising Fc or GST)
VH: QVQLVESGGGVVQPGRSLRLSCAASGFTFSSYGMHWVRQAPGKGLEWVAVIYYDGSNKYYADSVKGRFTISRDITKNTLYLQMNSLRAEDTAVYYCARASRGFDYWGQGTLVTVSS
VL: EIVLTQSPATLSLSPGDRATLSCRASQSVSSYLAWYQQKPGQAPRLLISDASNRATGIPARFSGSGSGTDFTLTISSLEPEDFAVYYCQQRSNWITFGQGTRLEIKR
notes: also called AGl 59; AG159 Ab
B2: GLP(A2G)-AG159LC:AG159 IgG2 (other)
light: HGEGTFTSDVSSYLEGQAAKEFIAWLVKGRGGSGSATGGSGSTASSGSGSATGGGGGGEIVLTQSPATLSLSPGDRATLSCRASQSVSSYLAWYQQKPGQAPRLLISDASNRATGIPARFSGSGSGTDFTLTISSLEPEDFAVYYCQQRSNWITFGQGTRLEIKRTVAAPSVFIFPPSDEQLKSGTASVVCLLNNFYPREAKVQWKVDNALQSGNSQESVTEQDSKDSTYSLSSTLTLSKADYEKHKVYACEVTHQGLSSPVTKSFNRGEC
heavy: B1 VH
notes: GLP-1 peptide-antibody fusion; also called GLP(A26)-AG159LC:AG159 IgG2; not shown: which one cannot be told, Tab
B3: AG159LC:GLP(A2G)-AG159 IgG2 (other)
light: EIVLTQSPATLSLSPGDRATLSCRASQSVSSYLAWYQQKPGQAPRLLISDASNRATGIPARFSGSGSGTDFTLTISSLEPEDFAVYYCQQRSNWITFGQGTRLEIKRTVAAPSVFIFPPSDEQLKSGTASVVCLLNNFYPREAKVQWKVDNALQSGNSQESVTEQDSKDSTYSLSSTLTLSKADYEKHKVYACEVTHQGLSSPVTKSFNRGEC
heavy: HGEGTFTSDVSSYLEGQAAKEFIAWLVKGRGGSGSATGGSGSTASSGSGSATGGGGGGQVQLVESGGGVVQPGRSLRLSCAASGFTFSSYGMHWVRQAPGKGLEWVAVIYYDGSNKYYADSVKGRFTISRDITKNTLYLQMNSLRAEDTAVYYCARASRGFDYWGQGTLVTVSS
notes: GLP-1 peptide-antibody fusion; It was produced in CHO cells; also called GLP(A2G)-AG159 HC; AG159LC:GLP-1-AG159 IgG2; not shown: human IgG2 heavy chain constant region

Columns and labels:
[1] = target: T2, glucagon (UniProt P01275 53-81); test: cell-based or functional assay
[2] = target: T2, glucagon; test: inhibition of 200 pM 125I-glucagon binding to crude membranes of cells expressing the glucagon receptor, dose range of AG159
[3] = target: T1, mouse GLP-1 receptor; test: cell-based or functional assay
[4] = target: T3, human GLP-1 receptor (human, UniProt P43220 24-463); test: cell-based or functional assay
[5] = target: T3, human GLP-1 receptor; test: displacement of 0.2 nM 125I-GLP-1 from membranes of CHOK1 cells expressing human GLP-1 receptor

T2 sequence (P01275 53-81): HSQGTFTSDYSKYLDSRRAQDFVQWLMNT

Row | Binder | IC50 of neutralization of glucagon stimulated luciferase reporter activity (cells expressing recombinant glucagon receptor, 0.1 nM glucagon) [1] [nM] | IC50 [2] [nM] | EC50 of activation, GLP-1R luciferase reporter assay [3] [nM] | EC50 of activation, GLP-1R luciferase reporter assay [4] [nM] | IC50 [5] [nM]
1 | B1 | 4 | 0.2 | – | – | –
2 | B2 | – | – | 5 | 0.1 | 5 to 10
3 | B3 | – | – | 5 | 0.1 | 5 to 10
